Assay results as given in patent US20160228506A1, “Compositions and Formulations for Prevention and Reduction of Tumorigenesis, Cancer Cell Proliferation and Invasion, and Methods of Production and Use Thereof in Cancer Treatment” (PRONUTRIA, INC., priority 2013, published 2016).

Tests used:
[1] = SGF digest of 168 nutritive polypeptide library, intact protein by LC-MS/MS; format: in vitro ADME; settings: for % Intact Protein at 10 min: 168 nutritive polypeptide library SGF digest, LC-MS/MS spectral counts; for % Remaining at 10 min: 168 nutritive polypeptide library, LC-MS/MS
Method in brief: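 A 168-protein IMAC-purified recombinant library was digested in simulated gastric fluid and the 0 and 10 min samples were profiled by SDS-PAGE fractionation, in-gel trypsin digestion and nanoLC-MS/MS. Percent intact protein at 10 min is the ratio of spectral counts (t10/t0), summed over the peak fraction and two flanking fractions. Filters were 1% FDR and at least two unique peptides.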

pH solubility = format: physicochemical; settings: for pH Range where Protein is >80% detected as Soluble and A650 <1 OD: Low: lower pH; for pH Range where Protein is >80% detected as Soluble and A650 <1 OD: High: upper pH
Method: pH Solubility. […] Protein was either lyophilized and then resuspended in buffer cocktail mixtures, or concentrated and then spiked into buffer cocktail mixtures at a final protein concentration of 5 to 30 mg/ml. As a control, protein was also dissolved in a solution of 8 M urea. Protein solutions were shaken for 10 min at room temperature. Turbidity of proteins was determined by measuring the absorbance of protein solutions at 650 nm. The protein solution was then centrifuged for 10 min at 1100×g to pellet undissolved or precipitated protein. The soluble protein fraction (supernatant) was sampled and protein concentration was measured by one or more of the following methods: Coomassie Plus Protein Assay (Pierce), Chip electrophoresis, gel electrophoresis, and/or absorbance at 280 nm. The pH range over which select proteins remained greater than 80% soluble as determined by Bradford and the A650 value are listed in Table E31C.

[2] = Thermostability, temperature of aggregation (ProteoStat Thermal Shift); format: physicochemical; set-up: key to Tagg: temperature in °C
Method: The thermostability of proteins in a buffer cocktail of Citric Acid and Dibasic Sodium Phosphate over a pH range of 2.8 to 7.1 (preparation described above in Table E31B) was determined using the ProteoStat® Thermal Shift Stability Kit (Enzo Life Sciences) according to the manufacturer's standard protocol. Briefly, protein solutions (˜10 mg/ml) containing 1× ProteoStat TS Detection Reagent were heated from 25° C. to 95° C. at a rate of 0.5° C. per 30 sec using a real-time PCR (rtPCR) thermocycler (BioRad) equipped with a plate reader (SynergyMx, Biotek) while monitoring the fluorescence with a Texas Red filter.

[3] = Intact half-life during simulated gastric fluid (SGF) digestion; settings: for SGF Half-life (t½): SGF pH 1.5, pepsin:polypeptide 1:20 w/w, 37° C., intact protein; for Half-life: purified proteins, chip electrophoresis
[4] = tested on: SEQID-00338 kinase activity (AMP + ATP→ADP); assay: Kinase activity of SEQID-00338 (ADP-Glo Max Assay); format: biochemical; settings: 7 μg/mL, 30 minute reaction at 30° C.
Method: The ADP-Glo™ Max Assay was obtained from Promega (Catalog number V7001, Madison, Wis.). Adenosine Monophosphate was obtained from Sigma-Aldrich (Catalog number A1752, St. Louis, Mo.). 5× Kinase Buffer was prepared w/ 1.211 g Tris Base (Catalog number BP152-2, Fisher Bioreagents, Pittsburgh, Pa.), 692 μL 12% hydrochloric acid solution (Catalog number BDH3026-500MLP, VWR, Radnor, Pa.), 10.0 mL 500 mM magnesium chloride (Catalog number BP214-500, Fisher Bioreagents, Pittsburgh, Pa.) and the volume brought to 50 mL with MilliQ water and filtered through 0.22 μm PES filter (Catalog number SCGP00525, Millipore, Billerica, Mass.) into a sterile 50 mL tube.
Twelve his-tag purified mutant proteins and the wild-type protein at 35 μg/mL in Tris buffer were serially diluted to 7.0 and 1.4 μg/mL. Prepared kinase reaction mix at 0.5 mM AMP/0.5 mM ATP to test for activity and at 0 mM AMP/0 mM ATP to assay background activity by diluting 5× Kinase Buffer with appropriate volumes of 10 mM AMP and 10 mM ATP in MilliQ water. Duplicate reactions were prepared by mixing 9 μL of the reaction mixture with 6 μL of diluted SEQID-00338, mixing by pipetting up and down and dispensing 5 μL into a 384-well white OptiPlate (PerkinElmer, Waltham, Mass.). An ADP standard curve was prepared by serially diluting 4 mM ADP in MilliQ water and adding kinase buffer to 1× for a standard at 0.0005, 0.001, 0.005, 0.01, 0.05, 0.1, 0.5, 1, 2, 3, and 4 mM ADP. The plate was covered with a foil plate seal and incubated at 30° C. for 30 min. Following the kinase reaction, 5 μL of ADP-Glo™ Reagent was added to each well. The plate was sealed with a foil plate seal and placed on a horizontal plate shaker at 450 rpm for 2 minutes at room temperature. The plate was removed from the plate shaker and incubated at room temperature for 40 minutes. The plate was then centrifuged for 15 seconds at 1109×rcf and 10 μL of ADP-Glo™ Max Detection Reagent was added. The plate was sealed with a foil plate seal and shaken on a horizontal plate shaker at 450 rpm at room temperature for 2 minutes. The plate was then removed from the plate shaker and incubated at room temperature for 60 minutes. The plate was centrifuged for 15 seconds at 1109×rcf and the luminescence read on an EnspireAlpha plate reader (PerkinElmer, Waltham, Mass.).
The ADP standard curve was used to determine the concentration of ADP in sample wells in the presence or absence of substrate. Concentrations were determined by performing a non-linear 4 parameter logistic on the X=log(X) transformed ADP standard luminescence values. […] Where the background concentration of ADP in the absence of substrate was calculable the average of those values were subtracted from the calculated ADP concentration in the substrate incubated wells. Activity knock out was calculated by percentage activity relative to purified wild-type protein at the same concentration.

B1: SEQID-00622: protein of the 168 nutritive polypeptide library (protein, listed as Oryza sativa)
chain: MASEGAVSPAFAYTVVYVKDVAKSAAFYSAAFGYTVRRLDQSHKWAELESGTTTIAFTPLHQRETDALTGAVQLPDSAGERGPVEICFDYADVDAAYRRAVDSGAVPVSPPEQKSWGQKVGYVRDIDGIIVRMGSHVRA
modifications: source: /note="subsp. japonica"
notes: protein of the 168 nutritive polypeptide library
% Intact Protein at 10 min [1]: 43.6% | % Remaining at 10 min [1]: 43.6% | pH Range where Protein is >80% detected as Soluble and A650 <1 OD: Low (pH solubility): 2.8 | pH Range where Protein is >80% detected as Soluble and A650 <1 OD: High (pH solubility): 7.1 | Tagg ([2]; pH 2.8): 58.5 | Tagg ([2]; pH 3.7): 42 | Tagg ([2]; pH 3.9): 42 | Tagg ([2]; pH 4.3): 43.5 | Tagg ([2]; pH 4.6): 43.5 | Tagg ([2]; pH 5.0): 42.5 | Tagg ([2]; pH 5.6): 45.5 | Tagg ([2]; pH 6.0): 46 | Tagg ([2]; pH 6.5): 47 | Tagg ([2]; pH 7.1): 95 | SGF Half-life (t½) [3]: 6.6 min | Half-life [3]: 6.6 min

B2: R134M: single amino acid mutant of SEQID-00338, substrate binding position 134 (protein, listed as Saccharomyces cerevisiae)
chain: MSSSESIRMVLIGPPGAGKGTQAPNLQERFHAAHLATGDMLRSQIAKGTQLGLEAKKIMDQGGLVSDDIMVNMIKDELTNNPACKNGFILDGFPRTIPQAEKLDQMLKEQGTPLEKAIELKVDDELLVARITGMLIHPASGRSYHKIFNPPKEDMKDDVTGEALVQRSDDNADALKKRLAAYHAQTEPIVDFYKKTGIWAGVDASQPPATVWADILNKLGKD
modifications: source: /note="strain ATCC 204508 / S288c"
AVG percent activity relative to purified wild-type protein [4]: 0.3%

B3: R42I: single amino acid mutant of SEQID-00338, position 42 (protein, listed as Saccharomyces cerevisiae)
chain: MSSSESIRMVLIGPPGAGKGTQAPNLQERFHAAHLATGDMLISQIAKGTQLGLEAKKIMDQGGLVSDDIMVNMIKDELTNNPACKNGFILDGFPRTIPQAEKLDQMLKEQGTPLEKAIELKVDDELLVARITGRLIHPASGRSYHKIFNPPKEDMKDDVTGEALVQRSDDNADALKKRLAAYHAQTEPIVDFYKKTGIWAGVDASQPPATVWADILNKLGKD
modifications: source: /note="strain ATCC 204508 / S288c"
AVG percent activity relative to purified wild-type protein [4]: 1.5%

B4: R42C: single amino acid mutant of SEQID-00338, position 42 (protein, listed as Saccharomyces cerevisiae)
chain: MSSSESIRMVLIGPPGAGKGTQAPNLQERFHAAHLATGDMLCSQIAKGTQLGLEAKKIMDQGGLVSDDIMVNMIKDELTNNPACKNGFILDGFPRTIPQAEKLDQMLKEQGTPLEKAIELKVDDELLVARITGRLIHPASGRSYHKIFNPPKEDMKDDVTGEALVQRSDDNADALKKRLAAYHAQTEPIVDFYKKTGIWAGVDASQPPATVWADILNKLGKD
modifications: source: /note="strain ATCC 204508 / S288c"
AVG percent activity relative to purified wild-type protein [4]: 1.8%

B5: R42K: single amino acid mutant of SEQID-00338, position 42 (protein, listed as Saccharomyces cerevisiae)
chain: MSSSESIRMVLIGPPGAGKGTQAPNLQERFHAAHLATGDMLKSQIAKGTQLGLEAKKIMDQGGLVSDDIMVNMIKDELTNNPACKNGFILDGFPRTIPQAEKLDQMLKEQGTPLEKAIELKVDDELLVARITGRLIHPASGRSYHKIFNPPKEDMKDDVTGEALVQRSDDNADALKKRLAAYHAQTEPIVDFYKKTGIWAGVDASQPPATVWADILNKLGKD
modifications: source: /note="strain ATCC 204508 / S288c"
AVG percent activity relative to purified wild-type protein [4]: 2.2%

B6: R134Y: single amino acid mutant of SEQID-00338, substrate binding position 134 (protein, listed as Saccharomyces cerevisiae)
chain: MSSSESIRMVLIGPPGAGKGTQAPNLQERFHAAHLATGDMLRSQIAKGTQLGLEAKKIMDQGGLVSDDIMVNMIKDELTNNPACKNGFILDGFPRTIPQAEKLDQMLKEQGTPLEKAIELKVDDELLVARITGYLIHPASGRSYHKIFNPPKEDMKDDVTGEALVQRSDDNADALKKRLAAYHAQTEPIVDFYKKTGIWAGVDASQPPATVWADILNKLGKD
modifications: source: /note="strain ATCC 204508 / S288c"
AVG percent activity relative to purified wild-type protein [4]: 0.2%

B7: R42A: single amino acid mutant of SEQID-00338, substrate binding position 42 (protein, listed as Saccharomyces cerevisiae)
chain: MSSSESIRMVLIGPPGAGKGTQAPNLQERFHAAHLATGDMLASQIAKGTQLGLEAKKIMDQGGLVSDDIMVNMIKDELTNNPACKNGFILDGFPRTIPQAEKLDQMLKEQGTPLEKAIELKVDDELLVARITGRLIHPASGRSYHKIFNPPKEDMKDDVTGEALVQRSDDNADALKKRLAAYHAQTEPIVDFYKKTGIWAGVDASQPPATVWADILNKLGKD
modifications: source: /note="strain ATCC 204508 / S288c"
AVG percent activity relative to purified wild-type protein [4]: 0.9%

B8: R42G: single amino acid mutant of SEQID-00338, position 42 (protein, listed as Saccharomyces cerevisiae)
chain: MSSSESIRMVLIGPPGAGKGTQAPNLQERFHAAHLATGDMLGSQIAKGTQLGLEAKKIMDQGGLVSDDIMVNMIKDELTNNPACKNGFILDGFPRTIPQAEKLDQMLKEQGTPLEKAIELKVDDELLVARITGRLIHPASGRSYHKIFNPPKEDMKDDVTGEALVQRSDDNADALKKRLAAYHAQTEPIVDFYKKTGIWAGVDASQPPATVWADILNKLGKD
modifications: source: /note="strain ATCC 204508 / S288c"
AVG percent activity relative to purified wild-type protein [4]: 1.2%

B9: SEQID-00511: protein of the 168 nutritive polypeptide library (protein)
chain: MVLFGFGKKKSLPKPEEALPGRDRVMSVPDRHYINGNPLKPPFPEGMEQAVFGLGCFWGAERKFWQQQGVFSTAVGYAGGYTKNPTYEEVCSGMTGHTEVVLVVFDPKVISYTDLLKLFWESHNPTQGMRQGNDTGTQYRSAIYTYSDEQQRLALASRDRYQQALSAASYGEITTEIAPAQEFYYAEAYHQQYLGKNPNGYCGLGGTGVGCPAMTETSV
modifications: Arthrospira platensis C1
notes: as for B1
% Intact Protein at 10 min [1]: 4.3% | % Remaining at 10 min [1]: 4.3% | pH Range where Protein is >80% detected as Soluble and A650 <1 OD: Low (pH solubility): 5.6 | pH Range where Protein is >80% detected as Soluble and A650 <1 OD: High (pH solubility): 7.1 | Tagg ([2]; pH 6.0): 39.5 | Tagg ([2]; pH 6.5): 45.5 | Tagg ([2]; pH 7.1): 42 | SGF Half-life (t½) [3]: 0.3 min | Half-life [3]: 0.3 min
